The values below come from patent publication US20250277031A1.

Experiment [1] concerns the target human CD47 on human red blood cells (human) (UniProt Q08722). The experiment is described as follows: flow cytometry on human RBCs.
For experiment [2], the target named is mouse CD47 on mouse red blood cells (mouse) (UniProt Q61735). The experiment is described as follows: flow cytometry on mouse RBCs. Background: In flow cytometry, cells or beads pass a laser one at a time.
In experiment [3] the target is cynomolgus CD47 on cynomolgus red blood cells (cynomolgus). Briefly: flow cytometry on cynomolgus RBCs.
In experiment [4] the target is rat CD47 on rat red blood cells (rat) (UniProt P97829). Briefly: flow cytometry on rat RBCs.
rat CD47 on rat red blood cells (rat), sequence (P97829 19-303): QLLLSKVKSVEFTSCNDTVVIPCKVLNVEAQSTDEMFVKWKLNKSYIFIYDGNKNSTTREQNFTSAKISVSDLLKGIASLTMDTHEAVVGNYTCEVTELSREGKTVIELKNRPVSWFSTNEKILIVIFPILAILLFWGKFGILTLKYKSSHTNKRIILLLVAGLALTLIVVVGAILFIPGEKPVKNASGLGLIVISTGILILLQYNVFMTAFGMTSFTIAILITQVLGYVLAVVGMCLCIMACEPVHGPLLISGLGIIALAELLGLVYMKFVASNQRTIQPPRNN

mouse CD47 on mouse red blood cells (mouse), sequence (Q61735 19-303): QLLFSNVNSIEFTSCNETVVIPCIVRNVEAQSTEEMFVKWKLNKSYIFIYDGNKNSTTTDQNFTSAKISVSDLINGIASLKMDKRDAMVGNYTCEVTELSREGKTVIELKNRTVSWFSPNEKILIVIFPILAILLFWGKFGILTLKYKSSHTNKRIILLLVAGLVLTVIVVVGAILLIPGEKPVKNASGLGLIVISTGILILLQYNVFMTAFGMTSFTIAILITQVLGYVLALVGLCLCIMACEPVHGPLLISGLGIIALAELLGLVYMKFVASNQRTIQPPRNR

On to Isotype control (antibody), for which the MFI in experiment [1] worked out at 3.65; in experiment [2], 3.21; in experiment [3] it was 3.95; in experiment [4], 3.33.
